Results: patent US20140243502

Assays:
[1] = target: non-targeted mut-scFv-TAP (UniProt P17726)
[2] = target: recombinant tick anticoagulant peptide (rTAP) (UniProt P17726)
[3] = test system: scFv anti-LIBS-TAP fusion protein

## factor Xa (fXa)
[1]
  cleavage of chromogenic substrate (spectrozyme FXa #222) by factor Xa, OD at 405 nm: inhibition of factor Xa activity by rTAP, scFv anti-LIBS-TAP, and non-targeted mut-scFv-TAP, but not by scFv anti-LIBS
[2]
  cleavage of chromogenic substrate (spectrozyme FXa #222) by factor Xa, OD at 405 nm: inhibition of factor Xa activity by rTAP, scFv anti-LIBS-TAP, and non-targeted mut-scFv-TAP, but not by scFv anti-LIBS
[3]
  cleavage of chromogenic substrate (spectrozyme FXa #222) by factor Xa, OD at 405 nm: inhibition of factor Xa activity by rTAP, scFv anti-LIBS-TAP, and non-targeted mut-scFv-TAP, but not by scFv anti-LIBS
